Results reported in the supplement of paper PMC11246515.
± gives the standard deviation of the averaged measurements.

Assay: total protein half-life in vivo (active degradation + dilution); higher = more stable protein
[1] = E. coli NCM3722 delta-clpP delta-lon delta-hslV, growth: N-lim chemostat, doubling time 6 h
[2] = E. coli NCM3722 delta-hslV, growth: N-lim chemostat, doubling time 6 h
[3] = E. coli NCM3722 delta-lon, growth: N-lim chemostat, doubling time 6 h
[4] = E. coli NCM3722 delta-smpB, growth: N-lim chemostat, doubling time 6 h
[5] = wild type E. coli NCM3722, growth: C-lim chemostat, doubling time 3 h
[6] = wild type E. coli NCM3722, growth: C-lim chemostat, doubling time 6 h
[7] = wild type E. coli NCM3722, growth: C-lim chemostat, doubling time 12 h
[8] = wild type E. coli NCM3722, growth: N-lim chemostat, doubling time 6 h
[9] = wild type E. coli NCM3722, growth: N-lim chemostat, doubling time 12 h
[10] = wild type E. coli NCM3722, growth: P-lim chemostat, doubling time 6 h
[11] = wild type E. coli NCM3722, growth: P-lim chemostat, doubling time 12 h
[12] = E. coli NCM3722 delta-clpP, growth: N-lim chemostat, doubling time 6 h

Sequence	total protein half-life in vivo [1]	total protein half-life in vivo [2]	total protein half-life in vivo [3]	total protein half-life in vivo [4]	total protein half-life in vivo [5]	total protein half-life in vivo [6]	total protein half-life in vivo [7]	total protein half-life in vivo [8]	total protein half-life in vivo [9]	total protein half-life in vivo [10]	total protein half-life in vivo [11]	total protein half-life in vivo [12]
MNKTITALAIMMASFAANASVLPETPVPFKSGTGAIDNDTVYIGLGSAGTAWYKLDTQAKDKKWTALAAFPGGPRDQATSAFIDGNLYVFGGIGKNSEGLTQVFNDVHKYNPKTNSWVKLMSHAPMGMAGHVTFVHNGKAYVTGGVNQNIFNGYFEDLNEAGKDSTAIDKINAHYFDKKAEDYFFNKFLLSFDPSTQQWSYAGESPWYGTAGAAVVNKGDKTWLINGEAKPGLRTDAVFELDFTGNNLKWNKLAPVSSPDGVAGGFAGISNDSLIFAGGAGFKGSRENYQNGKNYAHEGLKKSYSTDIHLWHNGKWDKSGELSQGRAYGVSLPWNNSLLIIGGETAGGKAVTDSVLITVKDNKVTVQN	5.85 ± 0.22 h	5.99 ± 0.77 h	6.24 ± 0.61 h	6.27 ± 1.1 h	3.12 ± 0.2 h	6.33 ± 0.044 h	12.6 ± 1.2 h	6.32 ± 0.1 h	11.5 ± 1.4 h	5.97 ± 0.41 h	13.9 ± 1.4 h	–
MIPQISQAPGVVQLVLNFLQELEQQGFTGDTATSYADRLTMSTDNSIYQLLPDAVVFPRSTADVALIARLAAQERYSSLIFTPRGGGTGTNGQALNQGIIVDMSRHMNRIIEINPEEGWVRVEAGVIKDQLNQYLKPFGYFFAPELSTSNRATLGGMINTDASGQGSLVYGKTSDHVLGVRAVLLGGDILDTQPLPVELAETLGKSNTTIGRIYNTVYQRCRQQRQLIIDNFPKLNRFLTGYDLRHVFNDEMTEFDLTRILTGSEGTLAFITEARLDITRLPKVRRLVNVKYDSFDSALRNAPFMVEARALSVETVDSKVLNLAREDIVWHSVSELITDVPDQEMLGLNIVEFAGDDEALIDERVNALCARLDELIASHQAGVIGWQVCRELAGVERIYAMRKKAVGLLGNAKGAAKPIPFAEDTCVPPEHLADYIAEFRALLDSHGLSYGMFGHVDAGVLHVRPALDMCDPQQEILMKQISDDVVALTAKYGGLLWGEHGKGFRAEYSPAFFGEELFAELRKVKAAFDPHNRLNPGKICPPEGLDAPMMKVDAVKRGTFDRQIPIAVRQQWRGAMECNGNGLCFNFDARSPMCPSMKITQNRIHSPKGRATLVREWLRLLADRGVDPLKLEQELPESGVSLRTLIARTRNSWHANKGEYDFSHEVKEAMSGCLACKACSTQCPIKIDVPEFRSRFLQLYHTRYLRPLRDHLVATVESYAPLMARAPKTFNFFINQPLVRKLSEKHIGMVDLPLLSVPSLQQQMVGHRSANMTLEQLESLNAEQKARTVLVVQDPFTSYYDAQVVADFVRLVEKLGFQPVLLPFSPNGKAQHIKGFLNRFAKTAKKTADFLNRMAKLGMPMVGVDPALVLCYRDEYKLALGEERGEFNVLLANEWLASALESQPVATVSGESWYFFGHCTEVTALPGAPAQWAAIFARFGAKLENVSVGCCGMAGTYGHEAKNHENSLGIYELSWHQAMQRLPRNRCLATGYSCRSQVKRVEGTGVRHPVQALLEIIK	5.93 ± 0.31 h	6.06 ± 0.28 h	6.07 ± 0.22 h	5.58 ± 0.1 h	2.92 ± 0.41 h	5.76 ± 0.42 h	11.1 ± 0.65 h	5.75 ± 0.096 h	12.3 ± 0.23 h	5.88 ± 0.11 h	11.6 ± 0.3 h	5.92 ± 0.38 h
MAQRDYVRRSQPAPSRRKKSTSRKKQRNLPAVSPAMVAIAAAVLVTFIGGLYFITHHKKEESETLQSQKVTGNGLPPKPEERWRYIKELESRQPGVRAPTEPSAGGEVKTPEQLTPEQRQLLEQMQADMRQQPTQLVEVPWNEQTPEQRQQTLQRQRQAQQLAEQQRLAQQSRTTEQSWQQQTRTSQAAPVQAQPRQSKPASSQQPYQDLLQTPAHTTAQSKPQQAAPVARAADAPKPTAEKKDERRWMVQCGSFRGAEQAETVRAQLAFEGFDSKITTNNGWNRVVIGPVKGKENADSTLNRLKMAGHTNCIRLAAGG	4.824 ± 0.04 h	5.87 ± 0.74 h	5.94 ± 0.43 h	4.76 ± 0.2 h	3 ± 0.038 h	5.351 ± 0.053 h	9.17 ± 0.79 h	5.27 ± 0.25 h	10.2 ± 0.24 h	4.421 ± 0.02 h	9.11 ± 0.63 h	6.54 ± 1.9 h
MTTQRSPGLFRRLAHGSLVKQILVGLVLGILLAWISKPAAEAVGLLGTLFVGALKAVAPILVLMLVMASIANHQHGQKTNIRPILFLYLLGTFSAALAAVVFSFAFPSTLHLSSSAGDISPPSGIVEVMRGLVMSMVSNPIDALLKGNYIGILVWAIGLGFALRHGNETTKNLVNDMSNAVTFMVKLVIRFAPIGIFGLVSSTLATTGFSTLWGYAQLLVVLVGCMLLVALVVNPLLVWWKIRRNPFPLVLLCLRESGVYAFFTRSSAANIPVNMALCEKLNLDRDTYSVSIPLGATINMAGAAITITVLTLAAVNTLGIPVDLPTALLLSVVASLCACGASGVAGGSLLLIPLACNMFGISNDIAMQVVAVGFIIGVLQDSCETALNSSTDVLFTAAACQAEDDRLANSALRN [P0AGE4]	5.56 ± 0.69 h	6.04 h	5.28 h	6.21 ± 0.49 h	3.36 h	5.87 ± 0.55 h	12.3 ± 0.23 h	5.94 ± 0.44 h	11.6 h	5.5355 ± 0.00083 h	10.7 ± 0.53 h	5.78 h
MANRMILNETAWFGRGAVGALTDEVKRRGYQKALIVTDKTLVQCGVVAKVTDKMDAAGLAWAIYDGVVPNPTITVVKEGLGVFQNSGADYLIAIGGGSPQDTCKAIGIISNNPEFADVRSLEGLSPTNKPSVPILAIPTTAGTAAEVTINYVITDEEKRRKFVCVDPHDIPQVAFIDADMMDGMPPALKAATGVDALTHAIEGYITRGAWALTDALHIKAIEIIAGALRGSVAGDKDAGEEMALGQYVAGMGFSNVGLGLVHGMAHPLGAFYNTPHGVANAILLPHVMRYNADFTGEKYRDIARVMGVKVEGMSLEEARNAAVEAVFALNRDVGIPPHLRDVGVRKEDIPALAQAALDDVCTGGNPREATLEDIVELYHTAW [P0A9S1]	4.47 ± 0.099 h	3.392 ± 0.0085 h	4.76 ± 0.29 h	2.66 ± 0.051 h	3.02 ± 0.11 h	5.64 ± 0.23 h	10.6 ± 0.27 h	4.48 ± 1 h	4.94 ± 0.27 h	5.483 ± 0.014 h	10.2 ± 0.13 h	3.35 ± 0.51 h
MHLITQKALKDAAEKYPQHKTELVALGNTIAKGYFKKPESLKAVFPSLDNFKYLDKHYVFNVGGNELRVVAMVFFESQKCYIREVMTHKEYDFFTAVHRTKGKK	–	–	–	–	–	–	–	–	–	6.72 h	10.1 ± 0.64 h	–
MSNITIYHNPACGTSRNTLEMIRNSGTEPTIIHYLETPPTRDELVKLIADMGISVRALLRKNVEPYEELGLAEDKFTDDRLIDFMLQHPILINRPIVVTPLGTRLCRPSEVVLEILPDAQKGAFSKEDGEKVVDEAGKRLK [P0AB96]	6.69 ± 0.8 h	–	–	3.72 h	–	6.14 ± 0.37 h	8.79 ± 1.4 h	3.41 ± 1.2 h	6.1 h	5.09 h	9.63 ± 0.02 h	5.24 h
MIKSKIVLLSALVSCALISGCKEENKTNVSIEFMHSSVEQERQAVISKLIARFEKENPGITVKQVPVEEDAYNTKVITLSRSGSLPEVIETSHDYAKVMDKEQLIDRKAVATVISNVGEGAFYDGVLRIVRTEDGSAWTGVPVSAWIGGIWYRKDVLAKAGLEEPKNWQQLLDVAQKLNDPANKKYGIALPTAESVLTEQSFSQFALSNQANVFNAEGKITLDTPEMMQALTYYRDLTANTMPGSNDIMEVKDAFMNGTAPMAIYSTYILPAVIKEGDPKNVGFVVPTEKNSAVYGMLTSLTITAGQKTEETEAAEKFVTFMEQADNIADWVMMSPGAALPVNKAVVTTATWKDNDVIKALGELPNQLIGELPNIQVFGAVGDKNFTRMGDVTGSGVVSSMVHNVTVGKADLSTTLQASQKKLDELIEQH	5.01 h	–	–	–	3 h	4.35 ± 1.8 h	13.3 h	–	–	–	–	–
MTIYTLSHGSLKLDVSDQGGVIEGFWRDTTPLLRPGKKSGVATDASCFPLVPFANRVSGNRFVWQGREYQLQPNVEWDAHYLHGDGWLGEWQCVSHSDDSLCLVYEHRSGVYHYRVSQAFHLTADTLTVTLSVTNQGAETLPFGTGWHPYFPLSPQTRIQAQASGYWLEREQWLAGEFCEQLPQELDFNQPAPLPRQWVNNGFAGWNGQARIEQPQEGYAIIMETTPPAPCYFIFVSDPAFDKGYAFDFFCLEPMSHAPDDHHRPEGGDLIALAPGESTTSEMSLRVEWL	6.63 h	–	–	–	0.925 h	–	10.7 h	–	–	6.42 h	11.3 ± 0.92 h	–
MNSLQILSFVGFTLLVAVITWWKVRKTDTGSQQGYFLAGRSLKAPVIAASLMLTNLSTEQLVGLSGQAYKSGMSVMGWEVTSAVTLIFLALIFLPRYLKRGIATIPDFLEERYDKTTRIIIDFCFLIATGVCFLPIVLYSGALALNSLFHVGESLQISHGAAIWLLVILLGLAGILYAVIGGLRAMAVADSINGIGLVIGGLMVPVFGLIAMGKGSFMQGIEQLTTVHAEKLNSIGGPTDPLPIGAAFTGLILVNTFYWCTNQGIVQRTLASKSLAEGQKGALLTAVLKMLDPLVLVLPGLIAFHLYQDLPKADMAYPTLVNNVLPVPMVGFFGAVLFGAVISTFNGFLNSASTLFSMGIYRRIINQNAEPQQLVTVGRKFGFFIAIVSVLVAPWIANAPQGLYSWMKQLNGIYNVPLVTIIIMGFFFPRIPALAAKVAMGIGIISYITINYLVKFDFHFLYVLACTFCINVVVMLVIGFIKPRATPFTFKDAFAVDMKPWKNVKIASIGILFAMIGVYAGLAEFGGYGTRWLAMISYFIAAVVIVYLIFDSWRHRHDPAVTFTPDGKDSL	3.19 h	–	–	–	–	–	–	–	–	–	–	–
MSEALLNAGRQTLMLELQEASRLPERLGDDFVRAANIILHCEGKVVVSGIGKSGHIGKKIAATLASTGTPAFFVHPAEALHGDLGMIESRDVMLFISYSGGAKELDLIIPRLEDKSIALLAMTGKPTSPLGLAAKAVLDISVEREACPMHLAPTSSTVNTLMMGDALAMAVMQARGFNEEDFARSHPAGALGARLLNKVHHLMRRDDAIPQVALTASVMDAMLELSRTGLGLVAVCDAQQQVQGVFTDGDLRRWLVGGGALTTPVNEAMTVGGTTLQSQSRAIDAKEILMKRKITAAPVVDENGKLTGAINLQDFYQAGII	5.02 ± 0.39 h	4.52 ± 0.3 h	4.85 ± 0.39 h	4.33 ± 0.28 h	3.14 ± 0.043 h	5.34 ± 0.49 h	9.87 ± 2.3 h	4.55 ± 0.18 h	7.014 ± 0.018 h	5.2 ± 0.36 h	12.3 ± 0.49 h	4.77 ± 0.57 h
MEYRSLTLDDFLSRFQLLRPQINRETLNHRQAAVLIPIVRRPQPGLLLTQRSIHLRKHAGQVAFPGGAVDDTDASAIAAALREAEEEVAIPPSAVEVIGVLPPVDSVTGYQVTPVVGIIPPDLPYRASEDEVSAVFEMPLAQALHLGRYHPLDIYRRGDSHRVWLSWYEQYFVWGMTAGIIRELALQIGVKP	5.44 ± 0.41 h	3.99 ± 0.25 h	4.38 ± 0.51 h	3.01 ± 0.22 h	2.36 ± 0.8 h	5.03 ± 0.89 h	7.74 ± 0.73 h	4 ± 0.21 h	6.98 ± 0.38 h	4.45 ± 0.2 h	8.18 ± 0.56 h	2.96 ± 0.13 h
MRMNVFEMEGFLRGKCVPRDLKVNETNAEYLVRKFDALEAKCAALENKIIPVSAELPPANESVLLFDANGEGWLIGWRSLWYTWGQKETGEWQWTFQVGDLENVNITHWAVMPKAPEAGA	–	–	–	2.28 h	2.52 h	–	–	–	–	3.02 ± 0.68 h	5.84 h	–
MIQPISGPPPGQPPGQGDNLPSGTGNQPLSSQQRTSLESLMTKVTSLTQQQRAELWAGIRHDIGLSGDSPLLSRHFPAAEHNLAQRLLAAQKSHSARQLLAQLGEYLRLGNNRQAVTDYIRHNFGQTPLNQLSPEQLKTILTLLQEGKMVIPQPQQREATDRPLLPAEHNALKQLVTKLAAATGEPSKQIWQSMLELSGVKDGELIPAKLFNHLVTWLQARQTLSQQNTPTLESLQMTLKQPLDASELAALSAYIQQKYGLSAQSSLSSAQAEDILNQLYQRRVKGIDPRVMQPLLNPFPPMMDTLQNMATRPALWILLVAIILMLVWLVR	3.57 ± 0.29 h	3.71 ± 0.25 h	3.18 ± 0.34 h	3.56 ± 0.12 h	2.64 ± 0.22 h	4.57 ± 0.41 h	6.56 h	3.65 ± 0.16 h	5.38 ± 0.4 h	3.705 ± 0.012 h	6.51 ± 0.24 h	3.889 ± 0.021 h
